The text below walks through data of paper doi:10.1101/2021.07.23.453529, “TELSAM polymers accelerate crystallization of fused target proteins by stabilizing minimal crystal contacts and in the absence of direct inter-TELSAM contacts” (bioRxiv, 2021).

B1: 3TEL (three tandem TELSAM monomers) of 3TEL-rigid-DARPin (domain or fragment, human)
chain: GSIRLPAHLRLQPIYWSRDDVAQWLKWAENEFSLRPIDSNTFEMNGKALLLLTKEDFRYRSPHSGDELYELLQHILKQRPGGGGSTSIRLPAHLRLQPIYWSRDDVAQWLKWAENEFSLRPIDSNTFEMNGKALLLLTKEDFRYRSPHSGDVLYELLQHILKQRPGGGGSTSIRLPAHLRLQPIYWSRDDVAQWLKWAENEFSLRPIDSNTFEMNGKALLLLTKEDFRYRSPHSGDVLYELLQHILKQR
notes: residue printed before TEL S47, left after SUMO cleavage; first TEL-SAM domain of 3TEL (human ETS variant transcription factor 6), the only one with V112E; flexible inter-TELSAM linker, as in PDB ID 2QAR; second TEL-SAM domain of 3TEL (human ETS variant transcription factor 6); third TEL-SAM domain of 3TEL (human ETS variant transcription factor 6); written apart for the contacts between the two …

Data set [1] deals with the molecule itself. Kind of data set: crystal structure; 3TEL-rigid-DARPin, 15 mg/mL, sitting drop, HEPES pH 7.3-7.4 with PEG; P1211, 2 molecules per asymmetric unit; contacts within the polymer and the crystal lattice.
Data set [2] concerns the target B1. The data set is described as above. Conditions: both partners purified.
Data set [3] concerns the molecule itself. Kind of data set: crystal structure; 1TEL-flex-vWa, 20 mg/mL, sitting drop, 100 mM Bis-Tris, pH 5.7, 3.0 M NaCl; P65, 1 molecule per asymmetric unit; contacts within the polymer and the crystal lattice.

B1: the binding result in data set [1] was “binds”.

B2: DARPin (Designed Ankyrin Repeat Protein) of 3TEL-rigid-DARPin (designed binder)
chain: DLGKKLLEAARAGQDDEVRILMANGADVNATDNDGYTPLHLAASNGHLEIVEVLLKNGADVNASDLTGITPLHAAAATGHLEIVEVLLKHGADVNAYDNDGHTPLHLAAKYGHLEIVEVLLKHGADVNAQDKFGKTAFDISIDNGNEDLAEILQKLN
notes: Designed Ankyrin Repeat Protein (DARPin), modelled from PDB ID 4J7W; Stood in the crystal joined on one chain with 3TEL; also called DAPRin; source: E. coli BL21(DE3), purified, as part of the 3TEL-rigid-DARPin chain
As for B2, the binding result in data set [2] is recorded as “binds”.

B3: 3TEL-rigid-DARPin (other, human)
chain: GSIRLPAHLRLQPIYWSRDDVAQWLKWAENEFSLRPIDSNTFEMNGKALLLLTKEDFRYRSPHSGDELYELLQHILKQRPGGGGSTSIRLPAHLRLQPIYWSRDDVAQWLKWAENEFSLRPIDSNTFEMNGKALLLLTKEDFRYRSPHSGDVLYELLQHILKQRPGGGGSTSIRLPAHLRLQPIYWSRDDVAQWLKWAENEFSLRPIDSNTFEMNGKALLLLTKEDFRYRSPHSGDVLYELLQHILKQRDLEAEAAAAEDLGKKLLEAARAGQDDEVRILMANGADVNATDNDGYTPLHLAASNGHLEIVEVLLKNGADVNASDLTGITPLHAAAATGHLEIVEVLLKHGADVNAYDNDGHTPLHLAAKYGHLEIVEVLLKHGADVNAQDKFGKTAFDISIDNGNEDLAEILQKLN
notes: residue printed before TEL S47, left after SUMO cleavage; first TEL-SAM domain of 3TEL (human ETS variant transcription factor 6), the only one with V112E; flexible inter-TELSAM linker, as in PDB ID 2QAR; second TEL-SAM domain of 3TEL (human ETS variant transcription factor 6); third TEL-SAM domain of 3TEL (human ETS variant transcription factor 6); rigid alpha-helical connection between 3TEL and …
For B3, in data set [1], the binding result is reported as “binds”.

B4: 1TEL (single TELSAM monomer) of 1TEL-flex-vWa (domain or fragment, human)
chain: GSIALPAHLRLQPIYWSRDDVAQWLKWAENEFSLRPIDSNTFEMNGKALLLLTKEDFRYRSPHSGDELYELLQHILAQ
notes: residue printed before TEL S47, left after SUMO cleavage; sterile alpha motif (SAM) domain of human ETS variant transcription factor 6 (TEL); Stood in the crystal joined on one chain with the vWa domain through one alanine; written apart for the contacts between the two parts
As for B4, in data set [3], the binding result was “binds”.
